Target: human CD11b/CD18 (alphaM beta2 integrin) on transfected CHO cells (human, UniProt P11215 17-1152; P05107 23-769)
Test: FACS competition on CHO-CD11b cells, competitor CyaA-biotin

B1: CyaA 373-1706 (hemolytic moiety) (other)
chain: MGCGNSKFSPDVLETVPASPGLRRPSLGAVERQDSGYDSLDGVGSRSFSLGEVSDMAAVEAAELEMTRQVLHAGARQDDAEPGVSGASAHWGQRALQGAQAVAAAQRLVHAIALMTQFGRAGSTNTPQEAASLSAAVFGLGEASSAVAETVSGFFRGSSRWAGGFGVAGGAMALGGGIAAAVGAGMSLTDDAPAGQKAAAGAEIALQLTGGTVELASSIALALAAARGVTSGLQVAGASAGAAAGALAAALSPMEIYGLVQQSHYADQLDKLAQESSAYGYEGDALLAQLYRDKTAAEGAVAGVSAVLSTVGAAVSIAAAASVVGAPVAVVTSLLTGALNGILRGVQQPIIEKLANDYARKIDELGGPQAYFEKNLQARHEQLANSDGLRKMLADLQAGWNASSVIGVQTTEISKSALELAAITGNADNLKSVDVFVDRFVQGERVAGQPVVLDVAAGGIDIASRKGERPALTFITPLAAPGEEQRRRTKTGKSEFTTFVEIVGKQDRWRIRDGAADTTIDLAKVVSQLVDANGVLKHSIKLDVIGGDGDDVVLANASRIHYDGGAGTNTVSYAALGRQDSITVSADGERFNVRKQLNNANVYREGVATQTTAYGKRTENVQYRHVELARVGQVVEVDTLEHVQHIIGGAGNDSITGNAHDNFLAGGSGDDRLDGGAGNDTLVGGEGQNTVIGGAGDDVFLQDLGVWSNQLDGGAGVDTVKYNVHQPSEERLERMGDTGIHADLQKGTVEKWPALNLFSVDHVKNIENLHGSRLNDRIAGDDQDNELWGHDGNDTIRGRGGDDILRGGLGLDTLYGEDGNDIFLQDDETVSDDIDGGAGLDTVDYSAMIHPGRIVAPHEYGFGIEADLSREWVRKASALGVDYYDNVRNVENVIGTSMKDVLIGDAQANTLMGQGGDDTVRGGDGDDLLFGGDGNDMLYGDAGNDTLYGGLGDDTLEGGAGNDWFGQTQAREHDVLRGGDGVDTVDYSQTGAHAGIAAGRIGLGILADLGAGRVDKLGEAGSSAYDTVSGIENVVGTELADRITGDAQANVLRGAGGADVLAGGEGDDVLLGGDGDDQLSGDAGRDRLYGEAGDDWFFQDAANAGNLLDGGDGRDTVDFSGPGRGLDAGAKGVFLSLGKGFASLMDEPETSNVLRNIENAVGSARDDVLIGDAGANVLNGLAGNDVLSGGAGDDVLLGDEGSDLLSGDAGNDDLFGGQGDDTYLFGVGYGHDTIYESGGGHDTIRINAGADQLWFARQGNDLEIRILGTDDALTVHDWYRDADHRVEIIHAANQAVDQAGIEKLVEAMAQYPDPGAAAAAPPAARVPDTLMQSLAVNWR
**Q.** Does B1 bind?
**A.** binds
